Legend:
[1] = tested on: GST-IkBα protein [GST: P08515]
[2] = tested on: casein (Sigma)

Chain of GST-IkBα protein [GST: P08515] (P08515 whole entry, looked up): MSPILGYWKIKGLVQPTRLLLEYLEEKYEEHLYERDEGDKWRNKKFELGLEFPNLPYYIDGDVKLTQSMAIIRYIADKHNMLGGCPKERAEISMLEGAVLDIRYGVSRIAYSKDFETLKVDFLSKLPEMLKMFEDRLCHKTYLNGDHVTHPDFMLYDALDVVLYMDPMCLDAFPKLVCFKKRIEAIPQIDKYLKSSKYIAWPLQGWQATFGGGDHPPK

GST fusion protein with mutant VRK1 protein (Lys 71 replaced by Trp)
kinase assay, phosphorylation of substrate ([γ-32P]-ATP, SDS-PAGE, 10 mM Mg) [1]: no phosphorylation was observed in reactions with mutant VRK1 carrying mutation in the predicted ATP binding site | kinase assay, phosphorylation of substrate ([γ-32P]-ATP, SDS-PAGE, 10 mM Mg) [2]: no phosphorylation was observed in reactions with mutant VRK1 carrying mutation in the predicted ATP binding site

Source: US20030171557
